In US20230213524A1 (published 2023) one finds Kd, binding result and drop in FRA signal data, which are given here for three molecules.

By Kd is commonly meant the constant that tells how readily two partners part at equilibrium.

For assay [1], the target named is T1, human folate receptor 1 (FOLR1) on cells (human, UniProt P15328 25-234).
T1 construct: On the cell surface: 300-19 cells transfected with human FOLR1 (NCBI NP_057937), or endogenous on KB, T47D and OVCAR3 cells; also called huFOLR1; folate receptor alpha
As to the kind of experiment: flow cytometry on T47D cells and ELISA (binding affinity 'by both methods'). The protocol: To assure that materials were continuously performing as expected, all antibodies were screened for binding by both ELISA and flow cytometry methods known in the art. Flow cytometry was performed using FOLR1 expressing human T47D cells cultured using in-vitro cell culture techniques known in the art. The antibodies were bound to these cells and detected indirectly using a goat anti-murine Alexa-fluor 488 detection antibody on a FACScalibur machine (FIGS. 6A-B).

The target of the next assay is T2, FOLR2 (UniProt P14207 17-230, limits assumed).
T2 construct: also called folate receptor 2
As to the kind of experiment: commercially available ELISA kit. The text has this: (§1) It is important that the assay detect only FOLR1, and not FOLR2 or especially FOLR3 (commonly found as a shed protein in human plasma), since Mov19 is specific for only FOLR1. To determine this, the top four clones were screened by commercially available ELISA kits (FIGS. 7A-B).

A further assay concerns the target T3, FOLR3 (UniProt P41439 23-245, limits assumed).
T3 construct: also called folate receptor 3
The assay is described as follows: commercially available ELISA kit.
Description: as §1
(An ELISA detects its analyte on a solid surface through an enzyme-linked reagent.)

Assay [2] deals with human folate receptor 1 (FOLR1) on cells (human) (UniProt P15328). The assay is described as follows: laser scanning cytometry on KB cells pre-treated with M9346A or vehicle, then stained with commercial FRA.
Chain of human folate receptor 1 (FOLR1) on cells (human) (P15328 25-234 limits assumed): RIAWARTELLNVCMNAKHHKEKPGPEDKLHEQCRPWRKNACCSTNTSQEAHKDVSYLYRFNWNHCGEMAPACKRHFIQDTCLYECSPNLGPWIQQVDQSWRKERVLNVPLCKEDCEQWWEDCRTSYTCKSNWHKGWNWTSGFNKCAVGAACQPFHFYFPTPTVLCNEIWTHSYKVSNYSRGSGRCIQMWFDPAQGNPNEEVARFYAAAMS

T1 sequence (P15328 25-234 limits assumed): as above
T2 sequence (P14207 17-230 limits assumed): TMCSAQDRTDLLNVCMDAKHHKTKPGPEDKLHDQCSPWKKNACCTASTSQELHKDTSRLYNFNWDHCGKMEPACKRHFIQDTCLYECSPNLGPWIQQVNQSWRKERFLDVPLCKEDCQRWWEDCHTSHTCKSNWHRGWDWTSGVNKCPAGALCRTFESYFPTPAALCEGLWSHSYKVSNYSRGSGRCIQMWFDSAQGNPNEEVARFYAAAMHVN
T3 sequence (P41439 23-245 limits assumed): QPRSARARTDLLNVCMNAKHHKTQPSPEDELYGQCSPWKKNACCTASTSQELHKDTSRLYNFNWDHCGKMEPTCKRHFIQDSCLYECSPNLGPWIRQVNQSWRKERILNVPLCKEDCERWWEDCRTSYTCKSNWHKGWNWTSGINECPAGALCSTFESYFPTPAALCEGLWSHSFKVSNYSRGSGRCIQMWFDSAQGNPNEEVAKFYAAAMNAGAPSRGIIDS

B1: muFR1-13 (antibody, mouse IgG2b, kappa, V domains shown)
VH: QVQLKESGPDLVAPSQSLSITCTVSGFSLSRYSVHWIRQPPGKGLEWLGMIWSGGNTDYNSVFKSRLNITKDNSKSQVFLKMNSLQTDDTAIYYCATFDGKVSWFAYWGQGTLVTVSA
VL: SIVMTQTPKFLLVSTGDRFTITCKASQSVSNDVLWYQQKPGQSPKLLIYYAYNRYSGVPDRFTGSGYGTDFTFTITTVQSEDLAVYFCQQDHSSPFTFGSGTKLEIKR
notes: Murine monoclonal purified from hybridoma supernatant; Used biotinylated as the detection antibody in the ELISAs and unlabeled in the cytometry assays; also called muFR1-13b; Biotinylated FR1-13
Molecule B1 had a Kd in assay [1] of 1 to 3 nM.

B2: muFR1-9 (antibody, mouse IgG1, kappa, V domains shown)
VH: QVQLVESGGGLVQPGGSRKLSCAASGFTFSSFGMHWVRQAPEKGLEWVAYISSGSSTFYYADTVKGRFTISRDNPKNTLFLQMTSLRSEDTAMYYCAKELTGTFAYWGQGTLVTVSA
VL: DIVLTQSPATLSVTPGDSVSLSCRASQSINNNLHWYQQKSHESPRLLIKYASQSISGIPSRFSGSGSGTDFTLSINSVETEDFGMYFCQQSNSWPQVTFGAGTKLELKR
notes: Murine monoclonal purified from hybridoma supernatant; Capture antibody of the shed antigen ELISA; also called murine FR1-9
For the molecule B2, the Kd in assay [1] is 2 to 4 nM.

B3: huMov19 (M9346A) (antibody, V domains shown)
VH: QVQLVQSGAEVVKPGASVKISCKASGYTFTGYFMNWVKQSPGQSLEWIGRIHPYDGDTFYNQKFQGKATLTVDKSSNTAHMELLSLTSEDFAVYYCTRYDGSRAMDYWGQGTTVTVSS
VL: DIVLTQSPLSLAVSLGQPAIISCKASQSVSFAGTSLMHWYHQKPGQQPRLLIYRASNLEAGVPDRFSGSGSKTDFTLTISPVEAEDAATYYCQQSREYPYTFGGGTKLEIKR
notes: also called IMGN853 antibody; antibody component of IMGN853
With B3, the binding result with FOLR2 and in the assay with FOLR3 was “no binding” throughout. In addition, the drop in FRA signal in assay [2] was 66%.
